From EP4371564A2
Like-named read-outs stand apart in the source and are kept apart here.

Key:
[1] = molecular target: T4 capsid (empty head isolated from 10-amber 13-amber hoc-del soc-del T4 phage-infected E. coli) (bacteriophage T4) (UniProt P04535); assay: Cas9-Soc in complex with siRNA displayed on T4 capsid
[2] = molecular target: T4 capsid (empty head isolated from 10-amber 13-amber hoc-del soc-del T4 phage-infected E. coli) (bacteriophage T4) (UniProt P04535); assay: Cas9-Soc-gRNA RNP co-displayed with Cre-Hoc on the same T4 capsid
[3] = molecular target: T4 capsid (empty head isolated from 10-amber 13-amber hoc-del soc-del T4 phage-infected E. coli) (bacteriophage T4) (UniProt P04535)
[4] = molecular target: T4 capsid (empty head isolated from 10-amber 13-amber hoc-del soc-del T4 phage-infected E. coli) (bacteriophage T4) (UniProt P04535); assay: Cas9-Soc in complex with gRNA displayed on T4 capsid
[5] = molecular target: T4 capsid (empty head isolated from 10-amber 13-amber hoc-del soc-del T4 phage-infected E. coli) (bacteriophage T4) (UniProt P04535); assay: in vitro display on T4 heads, sedimentation, SDS-PAGE densitometry with gp23* as internal control
[6] = molecular target: T4 capsid (empty head isolated from 10-amber 13-amber hoc-del soc-del T4 phage-infected E. coli) (bacteriophage T4) (UniProt P04535); assay: Cre-Hoc co-displayed with Cas9-Soc-gRNA RNP on the same T4 capsid
[7] = molecular target: T4 capsid (empty head isolated from 10-amber 13-amber hoc-del soc-del T4 phage-infected E. coli) (bacteriophage T4) (UniProt P04535); assay: display on T4 capsids at increasing ratios, SDS-PAGE (FIG. 21)
[8] = molecular target: T4 capsid (empty head isolated from 10-amber 13-amber hoc-del soc-del T4 phage-infected E. coli) (bacteriophage T4) (UniProt P04535); assay: copies displayed per T4 capsid, Soc-RGD against RGD-Hoc
[9] = molecular target: T4 capsid (empty head isolated from 10-amber 13-amber hoc-del soc-del T4 phage-infected E. coli) (bacteriophage T4) (UniProt P04535); assay: Soc-TAT displayed on T4(Luci) capsids used for transduction (FIG. 28)
[10] = molecular target: T4 capsid (empty head isolated from 10-amber 13-amber hoc-del soc-del T4 phage-infected E. coli) (bacteriophage T4) (UniProt P04535); assay: display on T4 capsids at increasing ratios, SDS-PAGE (FIG. 20)

## Cas9-Soc (SEQ ID NO: 16) (from UniProt Q99ZW2 1-1368)
[1]
  copies per capsid (copies per capsid): 280
[2]
  molecules per AV (molecules per capsid): 270
[3]
  Copies/ capsid (copies per capsid): 550
[4]
  copies per capsid (copies per capsid): 280

## Cpf1-Soc (SEQ ID NO: 17)
[5]
  Copies/ capsid (copies per capsid): 450

## Cre-Hoc (SEQ ID NO: 18)
[6]
  molecules per AV (molecules per capsid): 50
[7]
  ratio of protein molecules to binding sites at saturation (molecules per binding site): 15 to 20
[3]
  Copies/ capsid (copies per capsid): 95

## Cre-Soc (SEQ ID NO: 22)
[3]
  Copies/ capsid (copies per capsid): 630

## GFP-Soc (from UniProt P03715 1-80)
[3]
  Copies/ capsid (copies per capsid): 660

## RGD-Hoc (SEQ ID NO: 19) (from UniProt P18056 1-376)
[5]
  Copies/ capsid (copies per capsid): 85

## Soc-RGD (from UniProt P03715 1-80)
[8]
  fold copy number against RGD-Hoc: 8.3 fold
[3]
  Copies/ capsid (copies per capsid): 710

## Soc-TAT (from UniProt P03715 1-80)
[9]
  copies per capsid (copies per capsid): 520
[3]
  Copies/ capsid (copies per capsid): 750

## β-Gal-Soc (from UniProt P00722 2-1024; P03715 1-80) (enzyme)
[3]
  Copies/ capsid (copies per capsid): 320
[10]
  ratio of protein molecules to binding sites at saturation (molecules per binding site): 15 to 20
